Reference: publication PMC3232246

Biological target: EGFP-tagged Rac1-Y64F (human), P63000
Experiment: co-IP; MEF co-transfected with an EGFP-Rac1 construct and Flag-βPIX, Myc-Tiam1 or Myc-RhoGDI; modified RIPA buffer; 800 µg lysate, anti-GFP antibody and protein A sepharose, 4 °C; blots with anti-Flag or anti-Myc, normalised to the precipitated EGFP-Rac1
Conditions: remark: other sources report otherwise

B1: Myc-tagged RhoGDI, P52565 1-204 (natural protein)
chain: MAEQEPTAEQLAQIAAENEEDEHSVNYKPPAQKSIQEIQELDKDDESLRKYKEALLGRVAVSADPNVPNVVVTGLTLVCSSAPGPLELDLTGDLESFKKQSFVLKEGVEYRIKISFRVNREIVSGMKYIQHTYRKGVKIDKTDYMVGSYGPRAEEYEFLTPVEEAPKGMLARGSYSIKSRFTDDDKTDHLSWEWNLTIKKDWKD
B1 was tested, and the percent drop in binding against wild type was greater than 50%.
